# Measured values: paper doi:10.1101/2025.08.15.670619
# Biological target: Full-length Synechococcus PCC 7335 nitric oxide synthase (syNOS) (Synechococcus sp. PCC 7335)
# Assay: cryo-EM structure
substance,measurement,value
Full-length Synechococcus PCC 7335 nitric oxide synthase (syNOS) (enzyme),stoichiometry N,2
